Patent US20210147523A1 (TEIJIN PHARMA, published 2021)
Substitutions are numbered along the chain they refer to.

T1: human SPNS2 W259A mutant (human, UniProt Q8IVW8 1-549)
T1 sequence: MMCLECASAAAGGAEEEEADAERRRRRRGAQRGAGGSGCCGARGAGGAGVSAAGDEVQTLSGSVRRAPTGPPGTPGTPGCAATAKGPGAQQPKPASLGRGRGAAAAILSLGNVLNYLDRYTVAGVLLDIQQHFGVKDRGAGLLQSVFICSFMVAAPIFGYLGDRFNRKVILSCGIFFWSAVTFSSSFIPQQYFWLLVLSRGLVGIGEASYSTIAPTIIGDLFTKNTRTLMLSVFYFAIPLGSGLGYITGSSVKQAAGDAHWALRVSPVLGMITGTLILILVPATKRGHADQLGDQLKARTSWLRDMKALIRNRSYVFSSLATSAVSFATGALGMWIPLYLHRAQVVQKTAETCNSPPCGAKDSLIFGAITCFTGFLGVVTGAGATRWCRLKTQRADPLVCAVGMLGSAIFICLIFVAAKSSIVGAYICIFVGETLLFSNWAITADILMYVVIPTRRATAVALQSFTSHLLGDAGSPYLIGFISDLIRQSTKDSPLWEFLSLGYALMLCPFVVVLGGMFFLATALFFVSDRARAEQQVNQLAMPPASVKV

T2: human SPNS2 F133A mutant (human, UniProt Q8IVW8 1-549)
T2 sequence: T1 sequence with F133A, A259W

T3: human SPNS2 K136A mutant (human, UniProt Q8IVW8 1-549)
T3 sequence: T1 sequence with K136A, A259W

T4: human SPNS2 (human, UniProt Q8IVW8 1-549)
T4 sequence: T1 sequence with A259W

B1: 64-0807A (antibody, IgG2b, V domains shown)
VH: EVQVVESGGGLVQPGRSMKLSCAALGFTFRDYYMAWVRQTPTKGLEWVAAISTGGGNTYYRDSVKGRFTISRDNAKSTLYLQMDSLRSDDTATYYCARNPYGNYFDYWGQGVMVTVSS
VL: QFVLSQPNSVSTNLGSTVKLSCKRSTGNIGSNYVHWYQRHEGRSPTTLIYRDDKRPNGVPDRFSGSIDRSSNSALLTINNVQTEDEADYFCQSYSGGMYLFGGGTKLTVL
B2: 50-0704C (antibody, IgG2b, V domains shown)
VH: EVQLVGSGGGLVQPGRSMKLSCEASGFTFSNHYMAWVRQAPTKGLEWVATISTGGGNTYYRDSVKGRFTISRDNARSTLSLQMDSLRSEDTATYYCARQDYSNYMGGFAYWGQGTLVTVSS
VL: QFVLTQPNSVSTNLGSTVKLSCTRSIGNIGNNYVNWYKQYEGRSPTTMIYRDDERPDGVPDRFSGSIDRSSNSALLTINSVQTEDEADYFCQSFSSGIFIFGGGTKLTVL
B3: 37-0511F (antibody, IgG2b, V domains shown)
VH: EVHLQQSGAALVRPRASVKLSCKVSGDSISRYYVHFVKQRPGQGLEWIGRIDPEDDTTKYSEKFKNRATLTADASSDTASLILSGLTSDDTATYFCSTLTGLDYWGQGVMVTVSS
VL: DIQMTQSPPVLSTSVGDRVTLRCKPSQNVHSKLDWYQQKHGEAPKLLIYYTHNLQTGIPSRFSGSGSGTDYTLTISSLQPEDVATYYCFQYYSGWTFGGGTKLEMKR
B4: 94-1311E (antibody, V domains shown)
VH: EVQLQQSGAGLVRPRTSVRLSCKISGDSITAYYVHFVKQRPGQGLEWIGRIDPEDDSTKYSEKFKNKATLTADVSSSTAYLILSSLTSDDSATYFCSTLTGLDYWGQGVMVTVSS
VL: B3 VL with T13A, R22S, P25A, N28S, S31N, T69S, Q79R, P80A
B5: 53-0707E (antibody, IgG2b, V domains shown)
VH: B3 VH with H3Q, A10E, A16T, S30T, N66K, R67K, D77N, S80Y, L83F, D89E
VL: B3 VL with P25A
B6: 83-1110B (antibody, IgG2b, V domains shown)
VH: EVQLQQSGPEFVRPGTSVKFSCKVSGGSITSYFIHFVKQRPGQGLEWIGKIDPEDDSTKYGEKFKNKATLTADTSSNTAFLKLSSLTSEDTAIYFCTTLTGLDYWGQGVMVTVSS
VL: DIQMTQSPPVLSAAVGDRVTLSCKASRSLNKNLDWYQQKHGETPKLLIYHTHNLQTGIPSRFSGSGSDTDYTLTISSLQTEDVATYYCYQYHSGWTFGGGTRLELRR
B7: 96-1403F (antibody, IgG2b, V domains shown)
VH: EVQLVETGGGLVRPGSSLKLSCATSGFTFSDTWMSWVRQAPGKGLEWVALIKDKNSNSEANYAESIKGRFTISRDDSKSRVYLQMNTLRDQDTATYYCTRHEDFYYYSGYYFDYWGQGVMVTVSS
VL: DIVLTQSPPTLSVTPGESVSLSCRASQGISTSIHWYQQRSNESPRLLIKYASQSIAGIPSRFSGSGSGTDFILSINRVESEDFSVYYCQQTYSLPLTFGPGTKLEVKR
B8: 93-1310F (antibody, IgG2b, V domains shown)
VH: B7 VH with R13Q, S58Y, I66V, S79R, N86F, R100S, G109S, Q117H
VL: B7 VL with P9A, R39K, E42G, A56S, I72T, S74R, P100S, K103R, V106I
B9: 18-0211B (antibody, IgG2b, V domains shown)
VH: B2 VH with E1A, K43R, A75T, A97T, S102T
VL: B2 VL with M48L, E86G, K106T
B10: 89-1207D (antibody, IgG2b, V domains shown)
VH: B2 VH with T78I
VL: B2 VL with S80N, I98M
B11: 80-1104A (antibody, IgG2b, V domains shown)
VH: B7 VH with R13Q, A23S, D31E, A49G, S58Y, I66V, S79R, N86Y, R100S, G109S
VL: B7 VL with P9A, R39K, I55M, A56S, I72T, S74R, T91S, S93N, P100S, V106I
B12: 84-1111F (antibody, IgG2b, V domains shown)
VH: B1 VH with Q82K
VL: B1 VL with L48M, K106T

These binders were tested against T1, human SPNS2 W259A mutant (assay: flow cytometry).

Binder | binding ratio vs native type [ratio]
B1 | < 0.5
B2 | < 0.5
B3 | < 0.5
B4 | < 0.5
B5 | < 0.5
B6 | < 0.5

Each binder was assayed against T2, human SPNS2 F133A mutant (assay: flow cytometry).

Binder | binding ratio vs native type [ratio]
B2 | < 0.5
B7 | < 0.5
B8 | < 0.5

What follows are binders tested against T3, human SPNS2 K136A mutant (assay: flow cytometry).

Binder | binding ratio vs native type [ratio]
B1 | < 0.5
B2 | < 0.5
B9 | < 0.5
B10 | < 0.5
B11 | < 0.5
B7 | < 0.5
B8 | < 0.5

What follows are binders tested against T4, human SPNS2 (assay: cell-based or functional assay).

Binder | pIC50, S1P transport inhibition (S1PR3 Ca2+ FLIPR bioassay)
B1 | 7.4 pIC50 (M)
B12 | 7.7 pIC50 (M)
B2 | 7.2 pIC50 (M)
B9 | 7.6 pIC50 (M)
B10 | 7.2 pIC50 (M)
B3 | 7.3 pIC50 (M)
B4 | 7.8 pIC50 (M)
B5 | 7.1 pIC50 (M)
B11 | 7.5 pIC50 (M)
B7 | 6.9 pIC50 (M)
B8 | 7.6 pIC50 (M)
B6 | 7.6 pIC50 (M)
